Reference: paper PMC5882232

Molecular target: TRPA1b-FLAG (mouse TRPA1b, splice variant of TRPA1 lacking exon 20, tagged with FLAG) (mouse)
Test: native gel or EMSA

stoichiometry N: 4
Substance: TRPA1b-FLAG (mouse TRPA1b, splice variant of TRPA1 lacking exon 20, tagged with FLAG) (natural protein)
